# Measurements: US20120195909A1 (BIONOVION HOLDING B V, published 2012)
# T1: mouse APRIL (mouse, UniProt Q9D777 96-241, limits assumed)
# T1 sequence (looked up): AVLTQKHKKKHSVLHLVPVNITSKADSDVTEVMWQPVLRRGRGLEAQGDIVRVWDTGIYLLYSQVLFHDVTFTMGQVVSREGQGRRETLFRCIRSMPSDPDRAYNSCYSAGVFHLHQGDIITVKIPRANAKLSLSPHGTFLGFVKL
# T2: FLAG-hAPRIL (secreted form, supernatant of 293T cells transfected with pCR3-hAPRIL) (human, UniProt O75888 110-250, limits assumed)
# T2 construct: Used as cell supernatant; also called FLAG-APRIL; soluble APRIL in conditioned medium; not shown: FLAG tag
# T2 sequence (looked up): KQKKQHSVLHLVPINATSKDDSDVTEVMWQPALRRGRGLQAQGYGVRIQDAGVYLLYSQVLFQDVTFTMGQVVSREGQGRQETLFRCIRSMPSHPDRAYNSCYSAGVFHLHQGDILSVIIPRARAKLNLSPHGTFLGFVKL
# T3: Recombinant human APRIL (R&D Systems) (human, UniProt O75888 105-250)
# T3 construct: Bought protein; also called recombinant APRIL
# T3 sequence (looked up): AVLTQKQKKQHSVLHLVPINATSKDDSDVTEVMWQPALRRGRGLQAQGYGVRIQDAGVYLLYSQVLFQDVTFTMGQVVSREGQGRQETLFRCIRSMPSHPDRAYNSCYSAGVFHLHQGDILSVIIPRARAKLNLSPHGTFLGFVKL
# B1: hAPRIL.01A (antibody, IgG1, V domains shown)
# VH: EVQLQQSGPELVKPGASVKMSCKASGYTFTSYVMHWVKQKPGQGLEWIGYINPYNDAPKYNEKFKGKATVTSDKSSGTAYMELSSLTSEDSAVYYCARGLGYALYYAMDYWGQGTSVTVSS
# VL: DIVMTQSQKFKSTSVGDRVSVTCKASQNVGNNVAWYQQKAGQSPKALISSASNRDSGVPDRFTGSGSGTDFTLTISNVQSEDLADYFCQQYNIYPFTFGSGTELEIK
# notes: Mouse antibody from a hybridoma, IgG1, kappa
# What was measured:
# [1] = target: FLAG-hAPRIL (secreted form, supernatant of 293T cells transfected with pCR3-hAPRIL) (human) (UniProt O75888); assay: ELISA, FLAG-hAPRIL captured by coated anti-FLAG polyclonal antibody
# mouse APRIL = target: T1, mouse APRIL; assay: BIAcore
# [2] = target: T2, FLAG-hAPRIL (secreted form, supernatant …); assay: ELISA, FLAG-hAPRIL captured by coated anti-FLAG polyclonal antibody
# Method: Protein-based ELISA experiments using purified hAPRIL.01A and hAPRIL.03A antibodies were performed to determine apparent binding affinities (reported as EC₅₀ values). Binding was compared to mouse anti-hAPRIL IgG1 Aprily-5 (Alexis). Maxisorp 96-well immunoplates (Nunc) were coated with either rabbit anti-FLAG polyclonal antibody (Sigma) or BCMA-Fc (R&D Systems) at 50 ng/well in PBS overnight at 4° C. and blocked with 10% Goat serum/PBST for 1 hour at RT. Plates were washed with PBST 3 times and incubated with supernatant (1:4 in PBS) containing FLAG-hAPRIL for 1 hour at RT. Plates were again washed with PBST 3 times and incubated with hAPRIL.01A, hAPRIL.03A, and Aprily-5 antibodies (10 μg/ml high test with 10-fold dilutions in triplicates) for 1 h at RT. After three washes with PBST, bound antibodies were detected with goat anti-mouse IgG-HRP (1:2,000) (Southern Biotechnology) for 1 hour at RT. Plate was washed three times with PBST, and APRIL-reactivity was visualized with OptiEIA TMB substrate (Becton Dickinson). The concentration for half-maximal binding is reported as a measure of relative binding affinity. When FLAG-hAPRIL was captured by the anti-FLAG antibody (FIG. 2A), EC₅₀ values for hAPRIL.01A, hAPRIL.03A and Aprily-5 were calculated as 2.2, 1.4, and 1.7 nM, respectively. […] In contrast, binding of hAPRIL.03A to the APRIL-BCMA complex was observed.
# [3] = target: T2, FLAG-hAPRIL (secreted form, supernatant …); assay: blocking ELISA: antibody pre-incubated with FLAG-hAPRIL, binding to coated BCMA-Fc (competitor) detected
# Method: (§1) Blocking abilities of hAPRIL.01A and hAPRIL.03A were confirmed using purified antibodies. Maxisorp 96-well plates were coated with either BCMA-Fc (R&D Systems) or TACI-Fc (R&D Systems) at 50 ng/well overnight at 4° C. and blocked with 10% Goat serum/PBST for 1 hour at RT. FLAG-hAPRIL containing supernatants were pre-incubated with hAPRIL.01A, hAPRIL.03A, and Aprily-5 antibodies (10 μg/ml high test with 10-fold dilutions in triplicates) for 1 h at RT. Plates were washed with PBST 3 times, and bound FLAG-hAPRIL was detected by incubation with 1 μg/ml anti-FLAG BioM2-biotin antibody (Sigma) and 1:2,000 Streptavidin-HRP (Southern Biotechnology) for 1 hour each at RT. After the final PBST wash, APRIL-bound BCMA-Fc was visualized with OptiEIA TMB substrate (BD Biosciences). […] The concentration of half-maximum inhibition (IC₅₀) was determined for hAPRIL.01A as 1.2 and 0.4 nM for BCMA-Fc and TACI-Fc, respectively. The IC₅₀ for hAPRIL.03A to TACI-Fc was determined as 1.3 nM.
# [4] = target: T2, FLAG-hAPRIL (secreted form, supernatant …); assay: blocking ELISA: antibody pre-incubated with FLAG-hAPRIL, binding to coated TACI-Fc (competitor) detected
# [5] = target: T3, Recombinant human APRIL (R&D Systems); assay: bio-light interferometry (Octet), antibody amine-coupled to the biosensor, APRIL at 1 and 2 µg/ml, 1:1 global fit
# Method: (§2) To further characterize the binding characteristics of the antibodies, each was profiled using bio-light interferometry on the Octet system (ForteBio, Menlo Park, Calif.) to elucidate binding kinetics and calculate equilibrium binding constants. This assay was performed by coupling purified hAPRIL.01A and hAPRIL.03A antibodies to amine-reactive biosensors (Fortebio) using standard amine chemistry. Recombinant human APRIL (R&D Systems) binding to and dissociation from the biosensors was then observed at two concentrations, 1 and 2 μg/ml. Specifically, amine-reactive biosensors were pre-wetted by immersing them in wells containing 0.1M MES pH=5 for 2 minutes. The biosensors were then activated using a 0.1M NHS/0.4M EDC mixture for 5 minutes. hAPRIL.01A and hAPRIL.03A antibodies were coupled by immersing the biosensors in a solution of 5 μg/mL of the antibody for 18 minutes. The biosensor surface was quenched using a solution of 1M ethanolamine pH 8.5 for 7 minutes. Biosensors were equilibrated in PBS for 5 minutes. […] Dissociation was measured after transfer of the biosensors into PBS and monitoring of the interferometry signal for 20 minutes. The observed on and off rates (kobs and kd) were fit using a 1:1 binding global fit model, and the equilibrium binding constant KD was calculated (see Table 1).
# [6] = target: T2, FLAG-hAPRIL (secreted form, supernatant …); assay: blocking ELISA, FLAG-hAPRIL pre-incubated with titrated antibody, binding to coated TACI-Fc detected with anti-FLAG
# Method: as §1
# [7] = target: T3, Recombinant human APRIL (R&D Systems); assay: bio-light interferometry (Octet), antibody amine-coupled to the biosensor, APRIL at 1 and 2 µg/ml, 1:1 global fit; column printed as kobs
# Method: as §2
# [8] = target: T2, FLAG-hAPRIL (secreted form, supernatant …); assay: blocking ELISA, FLAG-APRIL supernatant pre-mixed with titrated antibody, binding to BCMA-Fc coated at 1 µg/ml detected with anti-Flag-HRP [left graph]
# Method: (§3) To study whether the blocking characteristics of hAPRIL.01A and hAPRIL.03A are unique, all known commercially available anti-APRIL antibodies were tested for their ability to block the interaction of FLAG-hAPRIL to BCMA-Fc and TACI-Fc (FIGS. 3A and 3B). Blockade of receptor binding was studied using an ELISA. An ELISA plate was coated with 50 with 100 μl of BCMA-Fc at 1 μg/ml or with 100 μl of TACI-Fc at a concentration of 2 μg/ml in coating buffer and incubated overnight at 4° C. The plate was then washed with PBS/0.2% Tween and then incubated with for 1 hour at 37° C. with 100 μl PBS/5% BSA per well. The plate was then washed four times with PBS/0.2% Tween. In a separate plate APRIL monoclonal antibodies were pre-mixed with APRIL supernatant and incubated for 30 minutes on ice. Conditioned medium containing soluble APRIL was diluted 1 in 4 and mixed with an equal volume of PBS containing the antibodies titrated in doubling dilutions starting with 5 μg/ml. 100 μl of the pre-incubated mix was transferred to the ELISA plate and incubated for 2 hours at 37° C. The plate was then washed four times with PBS/0.2% Tween. Anti-Flag-HRP antibody was then diluted in PBS at a concentration of 1:1000 and then 100 μl of this added to each well and incubated for 1 hour at 37° C. […] The colour was allowed to develop and then the OD at 405 nm read on an ELISA plate reader. […]
# [9] = target: T2, FLAG-hAPRIL (secreted form, supernatant …); assay: blocking ELISA, FLAG-APRIL supernatant pre-mixed with titrated antibody, binding to BCMA-Fc coated at 1 µg/ml detected with anti-Flag-HRP [right graph]
# Method: as §3
# [10] = target: T2, FLAG-hAPRIL (secreted form, supernatant …); assay: blocking ELISA, FLAG-APRIL supernatant pre-mixed with titrated antibody, binding to coated TACI-Fc (sheet: coated at 1 µg/ml) detected with anti-Flag-HRP [left graph]
# Method: (§4) To study whether the blocking characteristics of hAPRIL.01A and hAPRIL.03A are unique, all known commercially available anti-APRIL antibodies were tested for their ability to block the interaction of FLAG-hAPRIL to BCMA-Fc and TACI-Fc (FIGS. 3A and 3B). Blockade of receptor binding was studied using an ELISA. […] The plate was then washed with PBS/0.2% Tween and then incubated with for 1 hour at 37° C. with 100 μl PBS/5% BSA per well. The plate was then washed four times with PBS/0.2% Tween. In a separate plate APRIL monoclonal antibodies were pre-mixed with APRIL supernatant and incubated for 30 minutes on ice. Conditioned medium containing soluble APRIL was diluted 1 in 4 and mixed with an equal volume of PBS containing the antibodies titrated in doubling dilutions starting with 5 μg/ml. 100 μl of the pre-incubated mix was transferred to the ELISA plate and incubated for 2 hours at 37° C. The plate was then washed four times with PBS/0.2% Tween. Anti-Flag-HRP antibody was then diluted in PBS at a concentration of 1:1000 and then 100 μl of this added to each well and incubated for 1 hour at 37° C. The plate was then washed four times with PBS/0.2% Tween and then 100 μl of ABTS added to each well (the ABTS was diluted to the ratio 10 ml of reagent plus 5 μl of H₂O₂ made immediately before addition). The colour was allowed to develop and then the OD at 405 nm read on an ELISA plate reader. […]
# [11] = target: T2, FLAG-hAPRIL (secreted form, supernatant …); assay: blocking ELISA, FLAG-APRIL supernatant pre-mixed with titrated antibody, binding to coated TACI-Fc (sheet: coated at 1 µg/ml) detected with anti-Flag-HRP [right graph]
# Method: as §4
Molecule,EC50 [1] [nM],binding result (mouse APRIL),EC50 [2] [nM],IC50 [3] [nM],IC50 [4] [nM],Kd [5] [nM],koff [5] [s⁻¹],IC50 (read off the curve) [6] [µg/mL],kon [7] [M⁻¹ s⁻¹],IC50 (read off the curve) [8] [µg/mL],IC50 (read off the curve) [9] [µg/mL],IC50 (read off the curve) [10] [µg/mL],IC50 (read off the curve) [11] [µg/mL]
mouse anti-hAPRIL IgG1 Aprily-5 (Alexis) (antibody),1.7,,,,,,,,,,,,
B1,,no binding,2.2,1.2,0.4,0.753,3.69e-05,~0.2,48900,~0.8,~0.9,~0.7,~0.7
